# Source: patent publication US20150359847A1, “METHOD AND COMPOSITION FOR CONFERRING NEUROPROTECTION” (BLOOD SYSTEMS RESEARCH INSTITUTE, priority 2014, published 2015)
# Key:
# [1] = test system: β3-tubulin / dendritic branches in the molecular layer of the dentate gyrus; assay: β3-tubulin western blot and staining of ipsilateral hippocampus 7 days post-TBI; assay type: in vivo, mouse; conditions: TIMP3 60 μg/kg IV x3; day 7 post-TBI
# Text: (§1) The mouse controlled cortical impact (CCI) injury model was used as previously described. In brief, mice were anesthetized with 5% isoflurane and 1:1 O2:N2 mixture. Animals were mounted on a stereotaxic frame and were secured by ear bars and an incisor bar. Anesthesia was maintained with 2.0% isoflurane and 1:1 O2:N2 mixture. A 5-mm-diameter craniotomy was made midway between bregma and lambda on the right side, with the medial edge of the craniotomy 1 mm lateral to midline. Injury was produced using a magnetic impactor mounted at an angle of 110° from the vertical plane. A single impact at a velocity of 4+/−0.2 m/s was used inflict a moderate to severe injury (1.2-1.3 mm impact depth). After injury, the incision was closed. Sham animals underwent identical surgeries except for impact injury. Core body temperature was monitored using a rectal thermometer and maintained at 36.8° C.-37.2° C. with a heating pad throughout the procedure. For treatments, TIMP3 (60.0 μg/kg) or vehicle control (PBS) administration was performed at 2, 24, and 48 hrs after injury via tail vein injections in a total volume of 125 μl. Animal research was performed with approval of the Institutional Animal Care and Use Committee at ISIS Services LLC (San Carlos, Calif., USA). […]
# [2] = test system: p-AKT(Ser473) in primary hippocampal neurons; assay: Akt (Ser473) phosphorylation in primary hippocampal neurons (antibody array, western blot); assay type: cell-based, mouse; conditions: 1 μg/ml TIMP3, 15 mins
# Experimental: SH-SY5Y cells were obtained from ATCC (Cat# CRL-2266, Manassas, Va.) and were cultured in DMEM and 10% FBS up to passage 10. For differentiation of SH-SY5Y cells into a neuronal phenotype, cells were first plated in DMEEM+10% FBS for 24 hrs before exchanging media in DMEM+1% FBS 10 μM retinoic acid. Differentiation was performed for 3 days before experimentation. Hippocampal neurons were prepared according to the protocol by Beaudoin et al. (Nature Protocols 2012; 7(9):1741-1754) with minor modifications. In brief, after trypsin digestion of hippocampi isolated from P1 mouse pups single cell suspensions was created by trituration and plated onto Biocoat™ poly-D-lysine coated 12-well plates (Cat#354470, BD Biosciences, San Jose, Calif.). […]
# Pathscan Antibody™ array kits were purchased from Cell Signaling Technologies (Danvers, Mass.). PathScan® RTK signaling antibody array kit (Fluorescent Readout, Cat#7949) and PathScan™ Akt signaling antibody array kit (Fluorescent Readout, Cat#9700) were performed as per manufacturer's instructions. Imaging was performed on a LI-COR Odyssey™ infrared scanner and pixel densities measured by in house LI-COR Image™ suite software. […]
# Lysates was analyzed in conjuncture with the LI-COR Odyssey™ infra-red imaging system. […] After further wash steps images were obtained using a LI-COR™ Odyssey scanner and quantified using LI-COR™ Image Studio software. […]
# [3] = test system: mouse model of controlled cortical impact (CCI); assay: Context-dependent fear discrimination in CCI TBI mice (Example 1); assay type: in vivo; conditions: TIMP3 60 μg/kg IV x3; task day 2 (day 16)
# Text: as §1, with “μl.” for “μl. Animal research was performed with approval of the Institutional Animal Care and Use Committee at ISIS Services LLC (San Carlos, Calif., USA).”
# Contextual discrimination was assessed in a manner similar to prior studies conducted by the inventors and others. […] Comparing the time spent freezing in each chamber during training assessed discrimination of the two contexts.
molecule,measurement,setting,value
"TIMP3: Recombinant tissue inhibitor of matrix metalloproteinase-3, a soluble protein released by MSCs, obtained from Amgen Inc. (protein) CTCSPSHPQDAFCNSDIVIRAKVVGKKLVKEGPFGTLVYTIKQMKMYRGFTKMPHVQYIHTEASESLCGLKLEVNKYQYLLTGRVYDGKMYTGLCNFVERWDQLTLSQRKGLNYRYHLGCNCKIKSCYYLPCFVTSKNECLWTDMLSNFGYPGYQSKHYACIRQKGGYCSWYRGWAPPDKSIINATDP",number of β3-tubulin+ve dendritic branches >50 μm in the molecular layer,[1],attenuated by TIMP3 treatment
same,"β3-tubulin protein in ipsilateral hippocampus, western blot",[1],attenuated by TIMP3 treatment
same,"p-AKT(Ser473), fluorescent antibody signaling array",[2],activates p-AKT(Ser^473)
same,"p-AKT(Ser473), western blot",[2],activates p-AKT(Ser^473)
same,discrimination between shock and safe contexts,[3],discriminated between the environments following training
